{
  "source": "paper PMC9119628",
  "about": "(PLoS Pathogens, 2022)",
  "key": {"[1]": {"target": "T1, HA-NP (HA-tagged EBOV nucleoprotein) (Zaire ebolavirus (EBOV), UniProt P18272 1-739)", "T1 sequence": "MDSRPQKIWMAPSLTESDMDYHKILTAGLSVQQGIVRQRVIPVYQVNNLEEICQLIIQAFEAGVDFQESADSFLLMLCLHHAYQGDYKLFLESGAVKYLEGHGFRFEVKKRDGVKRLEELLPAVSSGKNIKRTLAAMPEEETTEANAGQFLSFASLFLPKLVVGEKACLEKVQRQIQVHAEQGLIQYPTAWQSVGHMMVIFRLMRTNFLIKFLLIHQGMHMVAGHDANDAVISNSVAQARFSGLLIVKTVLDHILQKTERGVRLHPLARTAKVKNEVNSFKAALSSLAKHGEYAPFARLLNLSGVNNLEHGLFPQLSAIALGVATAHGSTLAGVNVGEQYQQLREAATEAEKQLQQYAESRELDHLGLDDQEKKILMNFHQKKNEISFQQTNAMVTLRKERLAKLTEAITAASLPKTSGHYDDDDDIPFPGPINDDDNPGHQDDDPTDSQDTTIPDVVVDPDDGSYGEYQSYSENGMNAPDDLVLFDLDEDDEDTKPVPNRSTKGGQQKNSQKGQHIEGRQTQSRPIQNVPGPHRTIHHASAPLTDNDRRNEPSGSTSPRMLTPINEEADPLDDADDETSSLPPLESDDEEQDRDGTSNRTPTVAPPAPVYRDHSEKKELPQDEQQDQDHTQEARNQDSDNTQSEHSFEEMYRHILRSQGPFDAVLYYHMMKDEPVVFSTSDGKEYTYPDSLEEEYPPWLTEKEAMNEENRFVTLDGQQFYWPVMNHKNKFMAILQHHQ", "assay": "pull-down", "settings": "one partner purified"}, "[2]": {"target": "T1, HA-NP (HA-tagged EBOV nucleoprotein)", "assay": "co-IP", "settings": "partners not purified"}},
  "data": [
    {"binder": "untagged EBOV VP35 wild type (natural protein) MTTRTKGRGHTAATTQNDRMPGPELSGWISEQLMTGRIPVSDIFCDIENNPGLCYASQMQQTKPNPKTRNSQTQTDPICNHSFEEVVQTLASLATVVQQQTIASESLEQRITSLENGLKPVYDMAKTISSLNRVCAEMVAKYDLLVMTTGRATATAAATEAYWAEHGQPPPGPSLYEESAIRGKIESRDETVPQSVREAFNNLNSTTSLTEENFGKPDISAKDLRNIMYDHLPGFGTAFHQLVQVICKLGKDSNSLDIIHAEFQASLAEGDSPQCALIQITKRVPIFQDAAPPVIHIRSRGDIPRACQKSLRPVPPSPKIDRGWVCVFQLQDGKTLGLKI", "values": [
      {"measurement": "fold change of binding, with OTU-wt co-expression against without OTU", "setting": "[1]", "value": 5, "unit": "fold"},
      {"measurement": "fold change of binding, T6-KO against wt A549 cells", "setting": "[2]", "value": 6, "unit": "fold"}
    ]}
  ]
}
